Data reported in paper doi:10.1101/2020.04.16.045419 (bioRxiv, 2020).

What follows are binders tested against SARS-CoV-2 RBD construct consisting of residues Pro330-Gly526 fused to Venus YFP (RBD-vYFP) (SARS-CoV-2, UniProt P0DTC2).

Binder	binding result
Sb#48 (VHH) VHH: QVQLVESGGGLVQAGGSLRLSCAASGFPVSQSVMAWYRQAPGKEREWVAAIYSKGQYTHYADSVKGRFTISRDNAKNTVYLQMNSLKPEDTAVYYCNVKDAGSSYWDYDYWGQGTQVTVS	binds
Sb#5 (VHH) VHH: QVQLVESGGGLVQAGGSLRLSCAASGFPVFSGHMHWYRQAPGKEREWVAAILSNGDSTHYADSVKGRFTISRDNAKNTVYLQMNSLKPEDTAVYYCRVHVGAHYFGQGTQVTVS	binds
Sb#3 (VHH) VHH: QVQLVESGGGLVQAGGSLRLSCAASGFPVNYKTMWWYRQAPGKEREWVAAIWSYGHTTHYADSVKGRFTISRDNAKNTVYLQMNSLKPEDTAVYYCVVWVGHNYEGQGTQVTVS	binds
Sb#17 (VHH) VHH: QVQLVESGGGLVQAGGSLRLSCAASGFPVAGRNMWWYRQAPGKEREWVAAIYSSGTYTEYADSVKGRFTISRDNAKNTVYLQMNSLKPEDTAVYYCHVWVGSLYKGQGTQVTVS	binds
Sb#2 (VHH) VHH: QVQLVESGGGLVQAGGSLRLSCATSGFPVYQANMHWYRQAPGKEREWVAAIQSYGDGTHYADSVKGRFTISRDNAKNTVYLQMNSLKPEDTAVYYCRAVYVGMHYFGQGTQVTVS	binds
Sb#28 (VHH) VHH: QVQLVESGGGLVQAGGSLRLSCAASGFPVYHSTMFWYRQAPGKEREWVAAIYSSGQHTYYADSVKGRFTISRDNAKNTVYLQMNSLKPEDTAVYYCNVKDSGQWRQEYDYWGQGTQVTVS	binds
Sb#37 (VHH) VHH: QVQLVESGGGLVQAGGSLRLSCAASGFPVYHAYMEWYRQAPGKEREWVAAIYSNGEHTYYADSVKGRFTISRDNAKNTVYLQMNSLKPEDTAVYYCNVKDSGSFNQAYDYWGQGTQVTVS	binds
Sb#25 (VHH) VHH: QVQLVESGGGLVQAGGSLRLSCAASGFPVHAWEMAWYRQAPGKEREWVAAIRSFGSSTHYADSVKGRFTISRDNAKNTVYLQMNSLKPEDTAVYYCNVKDFGTHHYAYDYWGQGTQVTVS	binds
Sb#36 (VHH) VHH: QVQLVESGGGLVQAGGSLRLSCAASGFPEIAWEMAWYRQAPGKEREWVAAIRSFGERTLYADSVKGRFTISRDNAKNTVYLQMNSLKPEDTAVYYCNVKDFGWQHQEYDYWGQGTQVTVS	binds
Sb#30 (VHH) VHH: QVQLVESGGGLVQAGGSLRLSCAASGFPVTMAWMWWYRQAPGKEREWVAAIRSEGVRTYYADSVKGRFTISRDNAKNTVYLQMNSLKPEDTAVYYCNVKDYGQAHAYYDYWGQGTQVTVS	binds
Sb#9 (VHH) VHH: QVQLVESGGGLVQAGGSLRLSCAASGFPVSSSTMTWYRQAPGKEREWVAAINSYGWETHYADSVKGRFTISRDNAKNTVYLQMNSLKPEDTAVYYCYVYVGGSYIGQGTQVTVS	binds
Sb#19 (VHH) VHH: QVQLVESGGGLVQAGGSLRLSCAASGFPVNSHEMTWYRQAPGKEREWVAAIQSTGTVTEYADSVKGRFTISRDNAKNTVYLQMNSLKPEDTAVYYCYVYVGSSYLGQGTQVTVS	binds
Sb#27 (VHH) VHH: QVQLVESGGGLVQAGGSLRLSCAASGFPVYNTWMEWYRQAPGKEREWVAAITSHGYKTYYADSVKGRFTISRDNAKNTVYLQMNSLKPEDTAVYYCNVKDEGDMFTAYDYWGQGTQVTVS	binds
Sb#33 (VHH) VHH: QVQLVESGGGLVQAGGSLRLSCAASGFPVAHAWMEWYRQAPGKEREWVAAITSYGYKTYYADSVKGRFTISRDNAKNTVYLQMNSLKPEDTAVYYCNVKDTGTYRFYYDYWGQGTQVTVS	binds
Sb#31 (VHH) VHH: QVQLVESGGGLVQAGGSLRLSCAASGFPVNSHFMEWYRQAPGKEREWVAAIQHSSGFHTYYADSVKGRFTISRDNAKNTVYLQMNSLKPEDTAVYYCNVKDTGTTEDYDYWGQGTQVTVS	binds
Sb#6 (VHH) VHH: QVQLVESGGGLVQAGGSLRLSCAASGFPVEQGRMYWYRQAPGKEREWVAAIISHGTVTVYADSVKGRFTISRDNAKNTVYLQMNSLKPEDTAVYYCYVYVGAQYWGQGTQVTVS	binds
Sb#12 (VHH) VHH: QVQLVESGGGLVQAGGSLRLSCAASGFPVKASRMYWYRQAPGKEREWVAAIQSFGEVTWYADSVKGRFTISRDNAKNTVYLQMNSLKPEDTAVYYCYVWVGQEYWGQGTQVTVS	binds

Binder	binding result
Sb#10 (VHH) VHH: QVQLVESGGGLVQAGGSLRLSCAASGFPVQSHYMRWYRQAPGKEREWVAAIESTGHHTAYADSVKGRFTISRDNAKNTVYLQMNSLKPEDTAVYYCTVYVGYEYHGQGTQVTVS	binds
Sb#40 (VHH) VHH: QVQLVESGGGLVQAGGSLRLSCAASGFPVYYNWMEWYRQAPGKEREWVAAIHSNGDETFYADSVKGRFTISRDNAKNTVYLQMNSLKPEDTAVYYCNVKDIDAEAYAYDYWGQGTQVTVS	binds
Sb#29 (VHH) VHH: QVQLVESGGGLVQAGGSLRLSCAASGFPVEHEMAWYRQAPGKEREWVAAIRSMGRKTLYADSVKGRFTISRDNAKNTVYLQMNSLKPEDTAVYYCNVKDFGYTWHEYDYWGQGTQVTVS	binds
Sb#35 (VHH) VHH: QVQLVESGGGLVQAGGSLRLSCAASGFPVEHYWMEWYRQAPGKEREWVAAITSFGYRTYYADSVKGRFTISRDNAKNTVYLQMNSLKPEDTAVYYCNVKDWGFASHAYDYWGQGIQVTVS	binds
Sb#32 (VHH) VHH: QVQLDESGGGLVQAGGSLRLSCAASGFPVYHAWMEWYRQAPGKEREWVAAITSSGRHTYYADSVKGRFTISRDNAKNTVYLQMNSLKPEDTAVYYCNVKDAGRVYNSYDYWGQGTQVTVS	binds
Sb#21 (VHH) VHH: QVQLVESGGGLVQAGGSLRLSCAASGFPVKHHWMFWYRQAPGKEREWVAAIKSYGYGTEYADSVKGRFTISRDNAKNTVYLQMNSLKPEDTAVYYCFVGVGTHYAGQGTQVTVS	binds
Sb#46 (VHH) VHH: QVQLVESGGGLVQAGGSLRLSCAASGFPVDNGYMHWYRQAPGKEREWVAAIDSYGWHTIYADSVKGRFTISRDNAKNTVYLQMNSLKPEDTAVYYCNVKDKGQMRAAYDYWGQGTQVTVS	binds
Sb#26 (VHH) VHH: QVQLVESGGGLVQAGGSLRLSCAASGFPVNTWWMHWYRQAPGKEREWVAAITSWGFRTYYADSVKGRFTISRDNAKNTVYLQMNSLKPEDTAVYYCNVKDKGMAVQWYDYWGQGTQVTVS	binds
Sb#13 (VHH) VHH: QVQLVESGGGLVQAGGSLRLSCAASGFPVYASNMHWYRQAPGKEREWVAAIESQGYMTAYADSVKGRFTISRDNAKNTVYLQMNSLKPEDTAVYYCWVIVGEYYVGQGTQVTVS	binds
Sb#11 (VHH) VHH: QVQLVESGGGLVQAGGSLRLSCAASGFPVETENMHWYRQAPGKEREWVAAIYSHGMWTAYADSVKGRFTISRDNTKNTVYLQMNSLKPEDTAVYYCEVEVGKWYFGQGTQVTVS	binds
Sb#38 (VHH) VHH: QVQLVESGGGLVQAGGSLRLSCAASGFPVEWSHMHWYRQAPGKEREWVAAIVSKGGYTLYADSVKGRFTISRDNAKNTVYLQMNSLKPEDTAVYYCNVKDYGVHFKRYDYWGQGTQVTVI	binds
Sb#1 (VHH) VHH: QVQLVESGGGLVQAGGSLRLSCAASGFPVRKANMHWYRQAPGKEREWVAAIMSKGEQTVYADSVEGRFTISRDNAKNTVYLQMNSLKPEDTAVYYCRVFVGWHYFGQGTQVTVS	binds
Sb#8 (VHH) VHH: QVQLVESGGGLVQAGGSLRLSCAASGFPVNAGNMHWYRQAPGKEREWVAAIQSYGRTTYYADSVKGRFTISRDNAKNTVYLQMNSLKPEDTAVYYCRVFVGMHYFGQGTQVTVS	binds
Sb#39 (VHH) VHH: QVQLVESGGGLVQAGGSLRLSCAASGFPVFHVWMEWYRQAPGKEREWVAAIDSAGWHTYYADSVKGRFTISRDNAKNTVYLQMNSLKPEDTAVYYCNVKDAGNTTSAYDYWGQGTQVTVS	binds
Sb#49 (VHH) VHH: QVQLVESGGGSVQAGGSLRLSCAASGSIGQIEYLGWFRQAPGKEREGVAALNTWTGRTYYADSVKGRFTVSLDNAKNTVYLQMNSLKPEDTALYYCAAARWGRTKPLNTYYYSYWGQGTPVTVS	binds
Sb#20 (VHH) VHH: QVQLVESGGGLVQAGGSLRLSCAASGFPVEQREMEWYRQAPGKEREWVAAIDSNGNYTFYADSVKGRFTISRDNAKNTVYLQMNSLKPEDTAVYYCYVYVGKSYIGQGTQVTVS	binds
Sb#23 (VHH) VHH: QVQLVESGGGLVQAGGSLRLSCAASGFPVYAAEMEWYRQAPGKEREWVAAISSQGTITYYADSVKGRFTISRDNAKNTVYLQMNSLKPEDTAVYYCFVYVGKSYIGQGTQVSVS	binds
